Experimental data published in patent US20200190592A1, “PME-1 AS A BIOMARKER TO PREDICT AND DIAGNOSE AN INCREASED RISK OF ENDOMETRIAL CANCER AND GENE SILENCING OF PME-1 TO INHIBIT EPITHELIAL TO MESENCHYMAL TRANSITION” (Medical Diagnostic Laboratories, L.L.C., priority 2018, published 2020).
Positions count from the first letter of the chain named.

B1: Endogenous Ppp6c, the catalytic subunit of PP6 (enzyme, human, UniProt O00743 1-305, looked up)
chain: MAPLDLDKYVEIARLCKYLPENDLKRLCDYVCDLLLEESNVQPVSTPVTVCGDIHGQFYDLCELFRTGGQVPDTNYIFMGDFVDRGYYSLETFTYLLALKAKWPDRITLLRGNHESRQITQVYGFYDECQTKYGNANAWRYCTKVFDMLTVAALIDEQILCVHGGLSPDIKTLDQIRTIERNQEIPHKGAFCDLVWSDPEDVDTWAISPRGAGWLFGAKVTNEFVHINNLKLICRAHQLVHEGYKFMFDEKLVTVWSAPNYCYRCGNIASIMVFKDVNTREPKLFRAVPDSERVIPPRTTTPYFL
notes: Endogenous protein of ECC-1 cell lysate, probed by western blot with anti-Ppp6c; also called protein phosphatase 6 catalytic subunit

Legend:
RL95-2 cells = assay: TUNEL assay; assay type: cell-based, human; conditions: 100 nM siRNA, vs control siRNA; DNase positive control
From the text: To test for the involvement of apoptosis, we used siRNA against PME-1 or control siRNA and conducted an immunofluorescence assay called a TUNEL assay. In this assay, all cells were stained blue with the nuclear stain, DAPI, and cells that were undergoing apoptosis would stain green with the addition of fluorescein, which bound to fragmented DNA. Fragmented DNA is a hallmark of apoptotic cells. […] A positive control was included in the assay to determine that the assay conditions were optimal. In the positive control, RL95-2 cells were treated with DNase.
RL95-2 cells were plated in a chamber-slide and allowed to grow over night at 37° C. Cells were transfected the next day with 100 nM of siRNA (Thermo Scientific) using Dharmafect 1 transfection reagent (siRNA sequences are summarized in Table S2). Transfections were repeated on day four and the cultures were terminated the day after. The assay was performed according to the manufacturer's instructions (Roche Applied Science, counterstained with DAPI and photographed using Leica DM16000 B microscope. Cells incubated with 1U/μl of DNase I (Life Technologies) served as a positive control. The experiment was repeated three times.

[1] = target: T1, FLAG-tagged PME-1 S156A (catalytically inactive mutant) (human, UniProt Q9Y570 1-386); assay: FLAG co-immunoprecipitation from ECC-1 lysate, western blot with anti-Ppp6c
T1 construct: Expressed in ECC-1 cells and pulled down from lysate with FLAG resin; also called FLAG-PME-1 S156A; FLAG PME-1 S156A; not shown: FLAG tag; an N-terminal FLAG vector p3XFLAG-CMV-10 is named in the methods for RL95-2 cells
T1 sequence (looked up): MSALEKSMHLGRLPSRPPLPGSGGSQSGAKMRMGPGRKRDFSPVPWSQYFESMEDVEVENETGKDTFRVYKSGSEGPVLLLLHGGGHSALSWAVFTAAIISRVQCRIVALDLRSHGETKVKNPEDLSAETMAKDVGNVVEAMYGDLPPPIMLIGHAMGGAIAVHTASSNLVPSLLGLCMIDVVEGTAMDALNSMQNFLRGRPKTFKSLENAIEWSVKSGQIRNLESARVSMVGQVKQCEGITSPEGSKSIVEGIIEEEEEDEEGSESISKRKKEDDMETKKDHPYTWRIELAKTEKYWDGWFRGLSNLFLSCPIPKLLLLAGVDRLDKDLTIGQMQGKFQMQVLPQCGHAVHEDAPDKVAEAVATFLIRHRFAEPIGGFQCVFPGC

[2] = target: T2, FLAG-tagged PME-1 (over-expression of wild-type PME-1) (human, UniProt Q9Y570 1-386); assay: as above
T2 construct: Expressed in ECC-1 cells and pulled down from lysate with FLAG resin; also called FLAG-PME-1; protein methylesterase 1; not shown: FLAG tag; an N-terminal FLAG vector p3XFLAG-CMV-10 is named in the methods for RL95-2 cells
T2 sequence (looked up): T1 sequence (looked up) with A156S

Row | Molecule | detection of apoptotic cells (RL95-2 cells) | binding result [1] | binding result [2]
1 | PPME1 siRNA no. 1: siRNA, SEQ ID NO: 4: TGG CTG GTG TTG ATA GAT T, bp 959-977 (guide TGGCTGGTGTTGATAGATT; listed as DNA, chemistry not given here; listed as Homo sapiens) | did not lead to detection of apoptotic cells | – | –
2 | B1 | – | no binding | no binding
